Assay [1] addresses T1, Flag-Pyk2 (proline-rich tyrosine kinase 2 with N-terminal Flag tag, expressed from pFlag-Pyk2) (UniProt Q14289 1-1009).
T1 construct: Overexpressed in cells; not shown: N-terminal Flag tag from the pBICEP-CMV-1 vector
In words: anti-Flag immunoprecipitation from 293T lysate, Western blot with anti-GST. The source says:
To determine a SOCS2 domain which is important in the binding with Pyk2, the present inventors carried out the following experiment. HA-Ubiquitin, pFlag-Pyk2, and, GST expression vector, pGST-SOCS2, pGST-SOCS2-ΔSH2 or pGST-SOCS2-ΔSOCS were cotransformed into 293T cells using Lipofectamin 2000. After 4 hr of transformation, the medium was replaced to a new culture medium, and 24 hr later, cells were lysed. The each cell lysate was allowed to react with anti-Flag antibody. The antigen-antibody complexes were precipitated by incubation at 4° C. for 1 day with G-protein-conjugated agarose. The immunoprecipitated complexes were washed with 1×PBS. Western blot analysis was performed by the same method in Example <2-1> using anti-GST antibody, anti-Flag antibody, or anti-HA antibody (Santa Cruz, U.S.A.).
Background: Immunoblotting shows a protein as a band on a membrane.

Assay [2] addresses T2, Flag-Pyk2-Y402F (mutant Pyk2 in which tyrosine 402 had been mutated to phenylalanine, N-terminal Flag tag) (UniProt Q14289 1-1009).
T2 construct: Made from pFlag-Pyk2 by site-directed mutagenesis; also called pFlag-Pyk2-Y402F; not shown: N-terminal Flag tag from the pBICEP-CMV-1 vector
In words: anti-Flag immunoprecipitation from NK-92 lysate, Western blot with anti-GST. From the text: (§1) From Example <12-4>, it was confirmed that phosphorylated Pyk2 and SOCS2 bind each other. To determine whether phosphorylation of Pyk2 is important in the binding with SOCS2 or not, the present inventors carried out the following experiment. First of all, HA-ubiquitin, pGST-SOCS2, and, pFlag-Pyk2 or pFlag-Pyk2-Y402F were cotransformed into NK-92 cells using Lipofectamin 2000. After 4 hr of transformation, the medium was replaced to a new culture medium, and 24 hr later, cells were lysed. The each cell lysate was allowed to react with anti-Flag antibody. The antigen-antibody complexes were precipitated by incubation at 4° C. for 1 day with G-protein-conjugated agarose. The immunoprecipitated complexes were washed with 1×PBS. Western blot analysis was performed by the same method in Example <2-1> using anti-p-Pyk2^Tyr402 antibody, anti-GST antibody, anti-Flag antibody or anti-HA antibody.

The target of assay [3] is T1, Flag-Pyk2 (proline-rich tyrosine kinase …). Described as above.
Description: as §1

T1 sequence (Q14289 whole entry): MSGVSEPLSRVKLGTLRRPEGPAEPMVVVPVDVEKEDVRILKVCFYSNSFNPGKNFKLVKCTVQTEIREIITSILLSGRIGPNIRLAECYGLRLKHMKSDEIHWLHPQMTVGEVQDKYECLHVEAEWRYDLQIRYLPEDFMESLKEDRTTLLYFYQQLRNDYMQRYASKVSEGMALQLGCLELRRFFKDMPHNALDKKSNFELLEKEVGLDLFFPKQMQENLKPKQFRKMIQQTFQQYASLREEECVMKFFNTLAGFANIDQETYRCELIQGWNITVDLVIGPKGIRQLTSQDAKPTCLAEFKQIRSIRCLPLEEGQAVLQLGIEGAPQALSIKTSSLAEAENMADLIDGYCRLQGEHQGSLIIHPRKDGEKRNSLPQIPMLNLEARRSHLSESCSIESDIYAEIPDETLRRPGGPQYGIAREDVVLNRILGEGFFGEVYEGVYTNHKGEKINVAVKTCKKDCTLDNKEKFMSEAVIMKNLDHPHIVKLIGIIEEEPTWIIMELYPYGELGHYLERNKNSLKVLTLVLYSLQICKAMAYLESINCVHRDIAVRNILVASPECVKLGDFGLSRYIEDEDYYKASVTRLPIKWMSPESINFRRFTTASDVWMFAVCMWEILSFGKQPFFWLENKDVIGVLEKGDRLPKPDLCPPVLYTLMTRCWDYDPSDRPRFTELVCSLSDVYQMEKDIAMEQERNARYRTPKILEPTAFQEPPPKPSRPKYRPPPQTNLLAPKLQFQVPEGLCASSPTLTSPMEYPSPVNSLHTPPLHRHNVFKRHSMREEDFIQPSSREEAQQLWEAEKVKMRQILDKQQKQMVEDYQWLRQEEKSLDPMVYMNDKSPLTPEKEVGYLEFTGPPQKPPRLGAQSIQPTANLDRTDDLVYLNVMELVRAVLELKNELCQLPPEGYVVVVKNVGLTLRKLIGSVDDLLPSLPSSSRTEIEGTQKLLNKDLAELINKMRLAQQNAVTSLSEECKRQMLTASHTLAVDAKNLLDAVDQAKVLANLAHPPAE
T2 sequence (Q14289 whole entry Y402F): as the sequence (Q14289 whole entry) above, with Y402F counted along it

B1: GST-SOCS2-ΔSH2 (mutant SOCS2 in which the SH2 domain was deleted, N-terminal GST tag) (other)
chain: MTLRCLEPSGNGGEGTRSQWGTAGSAEEPSPQAARLAKALRELGQ
notes: also called pGST-SOCS2-ΔSH2; not shown: N-terminal GST tag of the pEBG vector and the junction to it
On to B1, for which, in assay [1], the binding result is on record as “no binding”.

B2: GST-SOCS2 (SOCS2, suppressor of cytokine signaling 2, with N-terminal GST tag, expressed from pGST-SOCS2) (other, UniProt O14508 1-198, looked up)
chain: MTLRCLEPSGNGGEGTRSQWGTAGSAEEPSPQAARLAKALRELGQTGWYWGSMTVNEAKEKLKEAPEGTFLIRDSSHSDYLLTISVKTSAGPTNLRIEYQDGKFRLDSIICVKSKLKQFDSVVHLIDYYVQMCKDKRTGPEAPRNGTVHLYLTKPLYTSAPSLQHLCRLTINKCTGAIWGLPLPTRLKDYLEEYKFQV
notes: Overexpressed in 293T or NK-92 cells and tested in cell lysate; not shown: N-terminal GST tag from the pEBG vector
With B2, the binding result in assay [2] is given as “no binding”; in assay [3] it was “binds”.

The values above are taken from patent publication US20120282646A1 (KOREA RESEARCH INSTITUTE OF BIOSCIENCE AND BIOTECHNOLOGY, published 2012).
